In publication PMC6361588, “Exploration of CTCF post-translation modifications uncovers Serine-224 phosphorylation by PLK1 at pericentric regions during the G2/M transition”:
Numbering of substitutions follows the chain as printed.

T1: FLAG-CTCF(S224E)-6xHis (UniProt Q61164 1-736, S224E)
T1 sequence: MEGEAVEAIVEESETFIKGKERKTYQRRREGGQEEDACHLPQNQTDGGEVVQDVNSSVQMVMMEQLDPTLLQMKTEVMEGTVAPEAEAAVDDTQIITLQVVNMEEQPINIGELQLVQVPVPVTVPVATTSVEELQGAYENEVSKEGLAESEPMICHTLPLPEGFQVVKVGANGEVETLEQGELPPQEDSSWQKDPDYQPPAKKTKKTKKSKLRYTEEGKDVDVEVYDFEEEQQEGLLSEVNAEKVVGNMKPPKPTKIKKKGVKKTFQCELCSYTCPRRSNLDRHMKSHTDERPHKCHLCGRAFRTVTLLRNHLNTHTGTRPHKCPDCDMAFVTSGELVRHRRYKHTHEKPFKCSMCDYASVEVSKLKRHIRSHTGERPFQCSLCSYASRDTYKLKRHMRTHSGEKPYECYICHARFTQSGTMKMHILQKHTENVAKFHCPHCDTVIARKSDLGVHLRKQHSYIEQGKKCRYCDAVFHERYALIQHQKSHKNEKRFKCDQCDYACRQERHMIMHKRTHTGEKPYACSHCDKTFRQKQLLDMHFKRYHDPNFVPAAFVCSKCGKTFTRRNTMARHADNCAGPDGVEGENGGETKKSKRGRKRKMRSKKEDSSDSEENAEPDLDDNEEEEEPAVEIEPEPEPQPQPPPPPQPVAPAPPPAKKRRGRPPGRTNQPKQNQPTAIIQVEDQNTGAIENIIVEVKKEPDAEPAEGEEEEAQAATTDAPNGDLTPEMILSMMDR

T2: FLAG-CTCF(S224A)-6xHis (UniProt Q61164 1-736, S224A)
T2 sequence: T1 sequence with E224A

B1: RS14C (dsDNA)
DNA 1: CTATGCATTAGGTTTGGGTGTTATACCCGTGTAGGCCAGCAGAGGGTGTCGGATCCCAAGGAAACCAAGTTACAGACGCC
DNA 2: GGCGTCTGTAACTTGGTTTCCTTGGGATCCGACACCCTCTGCTGGCCTACACGGGTATAACACCCAAACCTAATGCATAG
B2: RS14C mutant (dsDNA)
DNA 1: B1 DNA 1 with C37T, G42C, G45T
DNA 2: B1 DNA 2 with C36A, C39G, G44A

What was measured:
FLAG-CTCF(S224E)-6xHis = molecular target: T1, FLAG-CTCF(S224E)-6xHis; experiment: EMSA; 0.5, 1 or 2 pmol protein; EMSA as in Sun et al., 2013; buffer, salt, pH and temperature not given in the material; conditions: protein: recombinant; tags: N-terminal FLAG, C-terminal 6xHis; blunt
FLAG-CTCF(S224A)-6xHis = molecular target: T2, FLAG-CTCF(S224A)-6xHis; experiment: as above; conditions: protein: recombinant; tags: N-terminal FLAG, C-terminal 6xHis; blunt

| Binder | binding result (FLAG-CTCF(S224E)-6xHis) | binding result (FLAG-CTCF(S224A)-6xHis) |
| --- | --- | --- |
| B1 | binds | binds |
| B2 | no binding | no binding |
